The values that follow come from publication PMC6686228, “Contribution of Cytidine Deaminase to Thymidylate Biosynthesis in Trypanosoma brucei: Intracellular Localization and Properties of the Enzyme” (mSphere, 2019).

The target in series [1] is Trypanosoma brucei cytidine deaminase (recombinant His tag fusion protein) (Trypanosoma brucei brucei (427 strain)). As to the kind of experiment: SEC; gel filtration of purified recombinant TbCDA on Superdex 200, 50 mM phosphate buffer (pH 7.4) plus 150 mM NaCl, calibrated with molecular weight markers; 500 ul injected. (Size exclusion chromatography separates by hydrodynamic size, large species first.)

Substrate in series [2]: Nc1ccn([C@H]2C[C@H](O)[C@@H](CO)O2)c(=O)n1
As to the kind of experiment: purified protein. The series is classed as biochemical, Trypanosoma brucei. To be noted: 50 mM Tris-HCl pH 7.5, 1 mM DTT, 0.125 μM enzyme.

Substrate in series [3]: Cc1cn([C@H]2C[C@H](O)[C@@H](CO)O2)c(=O)nc1N
The series is described as follows: purified protein. Particulars: 50 mM Tris-HCl pH 7.5, 1 mM DTT, 0.125 μM enzyme. The series is classed as biochemical, Trypanosoma brucei.

Substrate in series [4]: Nc1ccn([C@@H]2O[C@H](CO)[C@@H](O)[C@H]2O)c(=O)n1
As to the kind of experiment: purified protein. The format is biochemical, Trypanosoma brucei. Particulars: 50 mM Tris-HCl pH 7.5, 1 mM DTT, 0.125 μM enzyme.

For the molecule “Trypanosoma brucei cytidine deaminase (recombinant His tag fusion protein) (enzyme)”, the stoichiometry N in series [1] came to 4.

B1: TbCDA (Trypanosoma brucei brucei TREU927) (protein)
chain: MQCSSLKTGCLKLLSQLPEGLQQAGRTAVSAHQRSYCPYSNFAVGAALLHDDGKVTSGCNYETCVYKGTCAEACAIVKANMDGYRTAQAVAIYGRSVLPTAAAAAADATVPPCGFCRQLLAEVADLSGNMNDFLVVLVTFDQEHARLFRLSELLPQPFGPSSIGMDVAALATGEHSRCPGTF
Turning to B1, in “purified protein [2]”, the Km was determined as 52.3 ± 4.5 µM, the Vmax worked out at 34.9 µmol/min/mg, the kcat came out at 12.4 ± 0.293 s⁻¹ and the specificity constant (kcat/Km) was 238000 M⁻¹ s⁻¹. In “purified protein [3]”, the Km amounted to 24.5 ± 3.3 µM, the maximal velocity (Vmax) was determined as 5.9 µmol/min/mg, the kcat was found to be 2.09 ± 0.08 s⁻¹ and the kcat/Km was determined as 85000 M⁻¹ s⁻¹. Further, in “purified protein [4]”, the Km was found to be 199.5 ± 9.0 µM, the Vmax turned out to be 126 µmol/min/mg, the kcat amounted to 44.8 ± 1.2 s⁻¹ and the kcat/Km worked out at 225000 M⁻¹ s⁻¹.

What is called stoichiometry N is a count of units in the complex or per binding partner. For orientation: Km means the concentration of substrate that gives half-maximal velocity. Broadly, the Vmax is the rate approached at saturating substrate. As usually defined, the kcat is the number of substrate molecules converted per active site and unit of time at saturation. A word on the kcat/Km: it is the turnover number divided by the Michaelis constant.
